Experimental data as given in the DeepSol protein solubility set.

Test: soluble on expression in E. coli; label from the status in PepcDB or PDB records

Sequence | soluble on expression in E. coli
GAHMADLSLEKAAEVSWEEEAEHSGASHNILVEVQDDGTMKIKDEERDDTLGGGGSGGGGSGVLWDTPSPGIYRILQRGLLGRSQVGVGVFQEGVFHTMWHVTRGAVLMYQGKRLEPSWASVKKDLISYGGGWRFQGSWNAGEEVQVIAVEPGKNPKNVQTAPGTFKTPEGEVGAIALDFKPGTAGSPIVNREGKIVGLYGNGVVTTSGTYVSAIAQAKASQEGPLPEIEDEVFRK | soluble
MGSDKIHHHHHHMMPVRQTLSKPDIQLSYLEWNQGQEPLLLLHGLGDHALVWSSLGDYLAADYHIVAPDMRGHGESTKPERDYTFESAIADLEALMDHLGWTSAQIVSHSWTGKLAAIWARQNRKRLRSIILVDPIFIWKMPSLLRLTFPMLYRFLPFLKSMGPFTSHEEAEQQARQLKQYQGWSSLQEQVFQAGIEQKPDGSWGSKFTIAARDEIFEAVMQVPGFTIPLDIQALFIQPEQGLNRQDWQIQPYKTYLKKLRICQVPGNHWPFLTQPETFNQTVAAFLAEHR | not soluble
SLPTLVTTQASDIDGSTLLSSQKGSGLGDCDSDARWTWDGRRFVPTSTSTSGLCRLVAAGGAWELPTLVTEVKSSP | soluble
SFKADLGTIGIQLHTTYSRRIRKVKVMDNRKEPPFFNEDNVGPFYFKLPFYDPMELFIETLTGTCFELRVSPFEAVISVKGKIQRLEGIPICQQHLIWNNMELEDDYCLNDYNISEGCTLKLVLAMRGGPISTRKVPVEDPLRELAEYMDSSRDEVWEKTSCNKQVTFLVYREGDQLNFFRVVDRGDGTLTPLSESLSGGSVYNLYTDEDEETEPSPSGQQIIENSITMNKMKLLKAKMENMNLSKKVKPLAVRQAFL | soluble
YSVTVKWGKEKFEGVELNTDEPPMVFKAQLFALTGVQPARQKVMVKGGTLKDDDWGNIKMKNGMTVLMMGSADALPEEPSAKT | soluble
SLSTKNHFIFPTYVQMYPYSKDRPFLKQVREKLRYYGYKWLYQKQCSQLVDFLNTETQWQSLFTQDYYRTNTILTTFCDKRFSASERLTAITENLRLAEEKMGRSLCQQLLDQQHIVLTQLTEDLRLSLSINHIDPFEGYFSINIRNQNNERVYDSSFTFLSPNKLLIASIQGPSSDNAQELVKQATKALHGMRPMFMLVNGFKMLAEKWQCELVGIPHKAQGKYRLSARSKILFNYDEFWQENQGEYRHNYWQLPLHIERKQLEDIASKKRSMYRKRYEMLDQMALDIQQL | not soluble
MSAEMTVEGMISVFMKIRKVYADEFGRMLGNETYSPNEISILLFLANNPSIDTNSQLCTCLGVSKALVCRSVDALLGKEMIISVADDHDKRVQHLKLTEHALPVIEQLGGIKRKIDQEILEGIPEEDIANMANTMEKIFARFEERAKGKESSL | not soluble
MSEQYKQPNTPEPYWRQSTPLPDFKPLQNDLLVDVVIVGGGITGITTAYLLQKRGKKVVILEADRLFNGTTGHTTAKITAQHGLIYDEFIQHFGEDKAKQYYDAQMEAKTFIKNTVQDLSIDCDFQEHDAYIYTNANRYLAKLEREMRAYEKLQINGSLIDSMPLQVPIKKAIVMKGQAQFHPIAYLMKLVQDFIDRGGLIFEHTVATDVDKGEHRTVLTRDGHKVTCDYVVESSHFPFFDRGFYFSRMYADRSYVLGLKVKEPYPGGMYLSAEDPPRSIRHASYQGEDLWLISGETHKTGQGMDTDYHYEALESFSREMFNVTDISYRWSAQDLVTLDRMPYIGPATSNDPHILVATGFRKWGMTNGTIAAHVITDLIIGQVNAYQKLFAPQRFVADPSLRKFFSYNVDVAKHLIDGKTEKGSRTPESLQKDEGDVVNVNGKRAGGYRDTDGALHLVDTTCTHMGCEVSWNHGDRTWDCPCHGSRFSYDGEVVEGPAKKPLKKIDHTLEHHHHHH | soluble
MGSDKIHHHHHHMARTVVVGLGRSGIGAARLLQAEGHQVTVLERSIEPHLQSLAADLRLQGIAVELGKPLELNSFIPLLDQLDAVVISPGIAWDHPTLTALRQRGIDIDGEMAVAWRSLSHLPWIAITGTNGKTTVTHLLNHVLESNGLRAPMGGNVGHAAAEVALKWRQPNAQRPDWLVMELSSYQIEAAPEIAPRMGIWTNLTPDHLERHGTLDAYRTIKRGLLERSEIRIFNGDDPDLRSQRSSWDKGLWVSSEGPGTANHRADFWIDAEGLVREPQGALFAASALAMPGQHNLQNLLLVTAAARQTGLPAKAIEASLRSFPGVPHRLEQLGHIQQMSVYNDSKATNYDAACVGLKAVPPPAVVLAGGQTKQGDASGWLKQLDQNACAVILFGAGASELQELIKTSGFSGELHCCSNLNAAVTLAIPLGVERQAACLLLSPACASFDQYQDFEARGEHFRSLISSHLTA | not soluble
MVVTCPKCGAKNRLGTPPPGQVPVCGACKTPLPWVVEADEKGFAQEVAGAPLTLVDFFAPWCGPCRLVSPILEELARDHAGRLKVVKVNVDEHPGLAARYGVRSVPTLVLFRRGAPVATWVGASPRRVLEERLRPYLEGR | soluble
MAGGLIRGKLIAIIGDEDTVTGFLLGGIGELNKNRKPNFLVVEKETSVTEIEETFRSFLNRDDIGIILINQFIAEMIRHAIDAHTISIPAVLEIPSKEHPYDATKDSILRRAKGMFTVDDLR | soluble
MATNRSRRLRKKLCVDEFQELGFELNFHYKEGVDADAVNAFMLRFIDQAIEANELTYGGCDEFGFVCLARRGSVNEEQRALIEAWLKQQPELASVEVGALVDAWYPEQPVLPKL | not soluble
MELSSEHKALFSLLRAGLWEREPDDLSPFPLTDAQWWNVYRMAVRQTVTGIVCRGLHHLPEALLPGDALMIRWVAETDRIERKNRRMDAVVCLLAQRMGRNGLHPVLLKGQGVAAFYEHPLTRECGDIDLCFLSEEEEREAAELMRRVGCRTEKQPDGSNCYSWQGVEVEHHTRLFDLHNPLLKVYLSALVREHGFTEFRPGGRDGLPEGNQSGEFPATISVPSPLPNLLLLNAHLLKHLLGHGVGLRQFCDMARAYHTLCGSYSPEGLEAVYRRTGLLRWSAQLHTFLTEYLGLHRAELPYADTDACSSPELLRIVLEGGNFGQYGGTKGKASQARWERKLRTFLSFWKHRGFSSAYARKEAFWISVRLIIGNLR | not soluble
MAEWNRAKRKRKTIEIQYTGLASNSTLKVTKVTGKHLESMGIPGKFGYEVYPEEAVYLMETGSATISTSSGRDLSLLEAFSILEAMSVPMSKYEAYKHVKRTGLVVLRPRKPTIDFERLRHVEPKIRQKFAEKSFEMLVNRHTVPEERVPNPDSFPSFENRNGQISMKMKVLHTSPALVNFLPLEMLESIQTSTILQNLKPPTPNRPPCRPPSYWPFVDHHVTNWQEFRFQAEQARQETVLRRLKKLRPPSHAELRRERITVENVDFHVFSPASFSHRLPARPLFSLICYSATGPPLKISELAELENVVFAMEEAGKVNFVAMSGASIDLNNYLC | not soluble
MSLGEVCEIMQAYGGVSIVNALPSWYGSSMAINLKVKVEIREGKRVYSQESELIKTILNYFKEKYSIPDIEVDIESELPQKSGLKSSSAVSVALIAEIAKQYDLRNINPPILSAILSLKAGVSYTGALDDAVASYCGGIAFTYNKMFRIVKLENLEDNLSILILAKGGRQKPVNLNELRKYSHVFEEIFKIALKDYLTAMKMNGILIANILGYSLEPIEIALKKGALAAGISGNGPSYFAVSKNGEEGPIYESLKKFGDVIIVRPVSLDCKDLSIKEGHHHHHH | not soluble
MGSDKIHHHHHHMETLLKISGVDKSFPGVKALNNACLSVYAGRVMALMGENGAGKSTLMKVLTGIYSKDAGTIEYLNRSVNFNGPKASQEAGISIIHQELNLVGNLTIAENIFLGREFKTSWGAINWQKMHQEADKLLARLGVTHSSKQLCAELSIGEQQMVEIAKALSFESKVIIMDEPTDALTDTETEALFNVIRELKAENRGIVYISHRLKEIFQICDDVTVLRDGQFIGERVMAEITEDDLIEMMVGRRLDEQYPHLSQEKGECVLDVKHVSGSGIDDVSFKLHAGEIVGVSGLMGAGRTELGKLLYGALPKTAGKVRLKNQEIENRSPQDGLDNGIVYISEDRKGDGLVLGMSVKENMSLTSLDHFSQKGGIRHQAEKMAVDDFILMFNIKTPNRDQQVGLLSGGNQQKVAIARGLMTRPNVLILDEPTRGVDVGAKKEIYQLINEFKKEGLSILMISSDMPEVLGMSDRVLVMREGKISAEFSREEATQEKLLAAAIGK | not soluble
MCRLAILALFSVAMVSVYGQDTPPPFLRNATPDQLKSFQQMIQSNGHLTETAMGAKIQEWVDQQGGKVAADWKDFQEFIKGQQGKSEAAHQTAISSFSPEAKKADAELTAISNDASLSIKAKGDKIQAYLTTLPANVKAELEKAQGQ | not soluble
MGSDKIHHHHHHVTPFAQTAAQTDHYDVIVIGAGPSGSVAASLLHQQGKRVLVLEKQHFPRFSIGESLLPCCMQVIAEANMLDAVNQAGYQFKNGAAFNANGRSTYFDFTDKFTPGPGTTFQVERGDFDKLLADTAASQGVEIRYGQRVDAVDLSHNPRLTISDEQGASYELSADYLLDASGFGRVLPRLLDLERPSNLPSRTAIFTHIQDNIDSVDMGDYHFDRNKILISVHPDNRDIWYWLIPFSNGRCSLGVVGEPHLLGQDADLEATNLEATLIRLVREEPRLKQLLSRAEIIRKPAKLAGYSANVSTLASDKFALLGNAGEFLDPVFSSGVTIAMQSASIAAKCVVKQLNGESVDWQTEYAQPLMRGVDTFRTYVQAWYDGRFQDVIFYQDPNPKIKQMICSILAGYAWDESNPFVAESERRLNMVVELCR | not soluble
SAAAMAEQEGSKGSARNRGGVQRVEGKLRASVEKGDYYEAHQMYRTLFFRYMSQSKHIEARELMYSGALLFFSHSQQNSAADLSMLVLESLEKHEVKVTEELLENLAKLFSLMDPNSPERVAFVSRALKWSSGGSGKFGHQKLHQFLAITLWKEQNYYESRYHFLHSSDGEGCANMLVEYSSTRGYRSEVDMFVAQAVLQFLCLKNKTSASVVFTTYTQKHPSIERGPPFVQPLLNFIWFLLLAVEGGKLTVFTVLCEQYQPSLKRDPMYNEYLDRIGQLFFGLPPKQSSSYGGLLGNLLNSLMGSGEDDDVEDGQEDSSPIELD | soluble
MGSDKIHHHHHHMQTEVFSDIFPLLSTATPQTLEWLLNIAIDHEYPTGRAVLMEDAWGNAVYFVVSGWVKVRRTCGDDSVALAILGRGDFFGEMAILDESPRSTDVIALSPVKLLSISRERFIQILFKDPQLHHRMLQLMVRRLRQINQRLQIRSSPPAVKLAHTLVSLGESYGQESEQGREIFNIPFKDLAEVTEIGVEETSKIMDKLHDKGWIKIDSANNIIYLINFKQLLNLAGKV | not soluble
MKQEVEKWRPFKHPDGDVRDLSFLDAHQVIYVQHHEDKEPLEYRFWVTYSLHCFTKDYEHQTNEEKLSLMYHAPKESRPFCQHRYNLARTHLKRTILALPESNVIHAGYGSYAVIEVDLDGGDKAFYFVVFRAFSEIFHHCLKLIEK | not soluble
AIAGGAVSAGQDNDELIDNLKEAQYIRTEAVEKAFRAIDRADYYLEEFKQNAYRDLAWKHGNIHLSAPCIYSEVMEALDLQPGLSFLNLGSGTGYLNTMAGLILGPFGINHGVEIHADVIEYAKEKLDLFVHTSDSFDRFDFCEPSFVAGNCLDIALDCMYDRVYCGAGVQKEHKEYMKNLIKVGGILVLPLEEKLTKITRTGPSSWETKKILAVSFAPLIQPDHVESAKSKSLQLPLPNIRSLQDLSRITIRRHIKKIVNQVPNGRGDGVMKNPPRYKRKRLRRRPLQTVVYLEEGGFACRIQNSFDDNNNCEGAGNCEGAGDDLAEKEEQGVSETKPNPPVNFLREKILCLPLPVPLKYYLLYYREK | soluble
